# Test results reported in paper PMC3836750, “A Novel Antibody Humanization Method Based on Epitopes Scanning and Molecular Dynamics Simulation” (PLoS ONE, 2013).
# Assays:
# [1] = molecular target: refined 1-17-2 antibody (humanized antibody with back mutation of the 5 key residues L38, L43, L45, L71 and H77) (rat | human); assay: SPR; BIACORE T200, CM5 chip; antibody captured on immobilized anti-human IgG (Fc) (human antibody capture kit); DEC-S solution passed through, 6 concentrations; regeneration 3 M magnesium chloride; KD = kd/ka
# DEC-205 protein (DEC-S) [2] = molecular target: T1, DEC-205 protein (DEC-S) (Homo sapiens, UniProt O60449); assay: SPR; BIACORE T200, CM5 chip; murine (rat) antibody immobilized by amine coupling; DEC-205 protein 500 to 15.625 nM, 240 sec injection at 30 µl/min, 600 sec dissociation; regeneration Glycine-HCl pH 2.5; KD = kd/ka; details: both partners purified
# T1 construct: DEC-205 protein in solution (DEC-S) used as SPR analyte; DEC-S is probably a soluble form of DEC-205
# DEC-205 protein (DEC-S) [3] = molecular target: T1, DEC-205 protein (DEC-S); assay: SPR; BIACORE T200, CM5 chip; antibody captured on immobilized anti-human IgG (Fc) (human antibody capture kit); DEC-S solution passed through, 6 concentrations; regeneration 3 M magnesium chloride; KD = kd/ka; details: both partners purified
# T1 sequence (O60449 28-1722): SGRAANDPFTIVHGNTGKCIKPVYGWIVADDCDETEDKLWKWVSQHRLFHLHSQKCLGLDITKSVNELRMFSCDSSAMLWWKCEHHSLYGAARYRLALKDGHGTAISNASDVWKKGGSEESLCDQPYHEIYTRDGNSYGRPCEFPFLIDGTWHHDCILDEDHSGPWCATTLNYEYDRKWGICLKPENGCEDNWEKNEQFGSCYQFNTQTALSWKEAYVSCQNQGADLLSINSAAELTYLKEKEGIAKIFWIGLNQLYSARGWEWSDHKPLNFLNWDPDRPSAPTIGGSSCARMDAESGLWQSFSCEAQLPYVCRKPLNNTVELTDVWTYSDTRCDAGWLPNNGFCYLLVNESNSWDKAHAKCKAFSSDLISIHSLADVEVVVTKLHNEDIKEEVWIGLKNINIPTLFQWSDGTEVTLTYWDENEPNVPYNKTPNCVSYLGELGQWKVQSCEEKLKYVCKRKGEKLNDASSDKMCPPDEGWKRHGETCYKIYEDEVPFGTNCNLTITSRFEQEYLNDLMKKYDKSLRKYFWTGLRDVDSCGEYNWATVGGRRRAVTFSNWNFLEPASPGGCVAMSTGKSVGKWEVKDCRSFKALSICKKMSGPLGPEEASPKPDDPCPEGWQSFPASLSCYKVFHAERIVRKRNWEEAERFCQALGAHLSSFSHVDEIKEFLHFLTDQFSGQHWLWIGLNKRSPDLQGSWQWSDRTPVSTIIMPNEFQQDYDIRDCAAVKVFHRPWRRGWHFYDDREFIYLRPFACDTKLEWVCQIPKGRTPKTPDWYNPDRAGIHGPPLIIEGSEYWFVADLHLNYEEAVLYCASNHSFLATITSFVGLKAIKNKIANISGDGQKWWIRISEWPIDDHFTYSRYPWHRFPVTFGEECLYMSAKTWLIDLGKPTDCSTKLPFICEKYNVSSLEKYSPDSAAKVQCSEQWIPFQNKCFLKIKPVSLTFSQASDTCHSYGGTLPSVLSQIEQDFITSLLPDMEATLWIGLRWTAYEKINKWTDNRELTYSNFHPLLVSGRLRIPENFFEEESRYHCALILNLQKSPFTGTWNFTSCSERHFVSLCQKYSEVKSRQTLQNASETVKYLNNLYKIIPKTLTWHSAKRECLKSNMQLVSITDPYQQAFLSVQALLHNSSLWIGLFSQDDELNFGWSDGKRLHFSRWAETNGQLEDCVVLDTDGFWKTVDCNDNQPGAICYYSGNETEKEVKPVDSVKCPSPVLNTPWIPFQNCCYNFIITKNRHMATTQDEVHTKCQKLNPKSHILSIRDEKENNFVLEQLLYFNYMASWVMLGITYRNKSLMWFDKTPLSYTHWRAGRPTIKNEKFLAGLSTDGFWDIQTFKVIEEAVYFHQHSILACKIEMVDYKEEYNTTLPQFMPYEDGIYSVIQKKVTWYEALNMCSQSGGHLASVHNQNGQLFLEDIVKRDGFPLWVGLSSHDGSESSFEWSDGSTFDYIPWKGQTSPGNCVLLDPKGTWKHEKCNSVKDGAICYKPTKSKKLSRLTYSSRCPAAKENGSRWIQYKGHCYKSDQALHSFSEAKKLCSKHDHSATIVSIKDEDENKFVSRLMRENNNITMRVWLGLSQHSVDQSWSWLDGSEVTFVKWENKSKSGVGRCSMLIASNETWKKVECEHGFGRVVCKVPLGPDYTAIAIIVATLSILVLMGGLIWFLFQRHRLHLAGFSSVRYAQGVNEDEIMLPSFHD
Kd (DEC-205 protein (DEC-S) [3]) [nM],koff (DEC-205 protein (DEC-S) [3]) [s⁻¹],kon (DEC-205 protein (DEC-S) [3]) [M⁻¹ s⁻¹],Molecule,other results
,,,DEC-205 protein (DEC-S) (from UniProt O60449 28-1722) (receptor),Kd [1]: 16.7 nM; koff [1]: 0.000137 s⁻¹; kon [1]: 8220 M⁻¹ s⁻¹
,,,"1-17-2 rat anti-human DEC-205 monoclonal antibody (antibody, V domains shown, VH of rat antibody 1-17-2; rat IgG1 heavy chain constant region (isotype IgG1 stated); VL of rat antibody 1-17-2; rat kappa light chain constant region (isotype kappa stated); Rat IgG1, kappa; also called Rat Ab; rat mAb; source: expressed in vitro and purified; hybridoma 1-17-2 from rats immunized with DEC-1-YB2/0 cells) VH: EVQLVESGGGLVQPGRSLKLSCAASGFTFSHYYMAWVRQAPTKGLEWVAYISTDGGTTYYRDSVKGRFTISRDNARSTLYLQVDSLRSEDTATYYCTTGQPGYNLDYFDYWGQGVMVTVSS VL: DIQMTQSPASLSASLEEIVTITCQASQDIGYWLAWYQLKPGKSPQLLIYGATSLADGVSSRFSGSRSGTQYSLKISRLQVEDIGIYYCQQASSVPWTFGGGTKLELK",Kd (DEC-205 protein (DEC-S) [2]): 29.7 nM; koff (DEC-205 protein (DEC-S) [2]): 0.000185 s⁻¹; kon (DEC-205 protein (DEC-S) [2]): 6290 M⁻¹ s⁻¹
35.4,0.000273,8040,"chimeric 1-17-2 antibody (variable regions of 1-17-2 with constant regions of a human antibody) (antibody, V domains shown, as the VH of m1; human heavy chain constant region contained in the MH vector; as the VL of m1; human light chain constant region contained in the MK vector; Captured by anti-human IgG (Fc) in SPR, so a human IgG; Vectors MH and MK from Dr. Linqi Zhang; also called Chi Ab; chimeric antibody) VH: EVQLVESGGGLVQPGRSLKLSCAASGFTFSHYYMAWVRQAPTKGLEWVAYISTDGGTTYYRDSVKGRFTISRDNARSTLYLQVDSLRSEDTATYYCTTGQPGYNLDYFDYWGQGVMVTVSS VL: DIQMTQSPASLSASLEEIVTITCQASQDIGYWLAWYQLKPGKSPQLLIYGATSLADGVSSRFSGSRSGTQYSLKISRLQVEDIGIYYCQQASSVPWTFGGGTKLELK",
373,0.00105,2930,"humanized 1-17-2 antibody (30 mutations based on the chimeric antibody) (antibody, V domains shown, human heavy chain constant region contained in the MH vector; human light chain constant region contained in the MK vector; Humanized VL and VH fragments were synthesized; also called Hu Ab; humanized antibody) VH: EVQLVESGGGLVQPGRSLRLSCAASGFTFSHYYMAWVRQAPGKGLEWVAYISTDGGTTYYRDSVKGRFTISRDNSKNTLYLQMNSLRSEDTAVYYCTTGQPGYNLDYFDYWGQGTLVTVSS VL: DIQMTQSPSSLSASVGDRVTITCQASQDIGYWLAWYQQKPGKAPKLLIYGATSLADGVPSRFSGSGSGTDFTLTISSLQPEDFATYYCQQASSVPWTFGGGTKLEIK",
